The results in this text go back to a protein production outcome set (Wang et al. 2014).

The nature of the data set: label from the status in PepcDB records.
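Also: failed if final PepcDB status was selected cloned or expressed and not failed if soluble or beyond.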

For the sequence “MGMLTDVALKALKPKEKIYKIADRDGIYVRVMPSGAISFRLDYRLNGRRETIYLGRYGRDGISLALAREKCLDAKRAIGEGRSPAIEKQRDKRRLKEAKSFGEFGEKWLTAAPMADSTRAMRRAIFERELLPVWRNRLLTEITPDDLRTHCGAIVERGAPATAIHVRDILKQIYGFAILHGEKVANPADEVGPASIATFVPKDRSLSPSEIRVMLKQLEHVATIPTIRLGMRLYLLTMVRKSELQDAVWDEVDFENAVWTIPKERMKRSKAHNVYLSRQALDIMIALKTCAGNSRYLLPSRYDADAPMSRATFNRITYAVVERAKANGLPLEPFTVHDLRRTGSTLLNELGFNSDWIEKCLAHEDGRSSRGVYNKAEYEVQRRHMMQEWSDIVDAWVGGKKHVPTLIPPSMPILAPDPAL”, the protein production result is recorded as “failed”. The value for “MGNHKAALTKQVFTFASELYAYGVREVVISPGSRSTPLALAFEAHPNIKTWIHPDERSAAFFAVGLIKGSERPVAILCTSGTAAANYTPAIAESQISRIPLIVLTSDRPHELRSVGAPQAINQVNMFNNYVSYEFDMPIADDSKETINAIYYQMQIASQYLYGPHKGPIHFNLPFRDPLTPDLNATELLTSEMKILPHY” was “failed”. In the case of “MGNIGSPPKFDEYPNGNEEPRRVLRLNVYFDNPVQNKDGAYDDRGGFWAPVDWWHRDAERWATLFAKGMRVAVRGHLERDDWTDGDGEPHTTYKVDARSVGILPYRLDAVHLSPLEHHHHHH” it was “failed”. The value for “MGNKITVEVTVYAAIEKVWKYWNEPAHIMKWCQASPEWHVPAAQNDLKAGGTFTTTMAAKDGSMSFDFGGVYDQVKTNDLIEYTIGDGRKVRIVFTHTGDTTNIVESFDPEETNPRELQQSGWQAILNSFKSYTENNLEHHHHHH” was “not failed”; that for “MGNNFAQLKRLINFFRTVILPARISQLILQTFLKWQKDNCMDMGAALAYYALFSLFPICLVMLSIAGRLLGADSNYYLQLISFAQNILPEQPFKVFQQALTNLNQSSFSAGLIGFGILVLTASRIFDALNQSVKKIWSVVHQPKENIGVKHHAFNFIRNKILAFLLVLSTVMVFLLSIFANLAAKIFLTVLAEFGQSIPWVTFDSLGLITTLQTSISYFLITVVIITLFKVLPPVRLQWWDIFPGAILTAATMMALQNAVGSGIIRIGENLQAYGVVGNVMVLLLWIYLIFQVFFIGCEFTFVFTYIFGSRHQKEKPF” was “failed”.

As for “MGPDGPPCEISTWKHNSMKQIALSLFVIAASGAYVWDQAGKNPANDMLGEALPADAAEAPTVQPKEPASAAALPVLRTSPAPLDPRFRTRLPIARETTAGIAVPAERPNDPVKQTVVPVAPQPSPAPPAQPVTPAVTDPASSTPSFAVTPAIYIPVPQPRPAYPNAPVRVVRVGMKPAAHGYADGVYTGPTADAYYGIIQIQALVQGGQLTALKVLKYPSDRRTSVNINRQALPMLRDEAISAQSADVDIISGATLTSRAFIQSLRGALKKASSLEHHHHHH”, the protein production entry is “failed”. Consider “MGPMRTLTVAIDWILIILFVISIILLIYALVKKNKKMAKYAGIAAAIIFILLFIAMRFALTVKPGQ”, for which the protein production entry is “failed”.

Take “MGPQRRLRPHEPWPTRSQPGSPAAAESSFLPSVSLLSWKLGDSAMSENRKLAAILAADVVGYSRLAGADEDLTLARLRTLRSDLIDPTIAVHHGRVVKRTGDGALVEFRSVVDAVRCAIEVQNGMVERNHGVPQDRRIEFRIGIHLGDVVEESDGDLMGDGVNIASRLEGVAAAGAICLSEDAYRQVKARLDLSVNDLGSTQLKNIAEPIRVYSLQVGSAGTKLAASPETAVSQPATAAPPKLSIAVLPFTNMSGDAEQDYFADGISEDIITALSKLSQLFVIARNSSFTFKGKNVHVQEVGTKLGVRHVLEGSVRKSGNRVRITAQLIDATTGGHLWAERFDRDLTDIFAVQDDVTQQIVGALAVNLTEGDRQRLAPGQTRHPEAYDCFLRGRELWHRLTRQTNSDARDLLQRAVDLDPNFASAHAFLALTHGLDYLNRWSALPQRSLEQAEEVATLAVARDDSDPVAHWALSLVSLYLRQHDRAISEAERAIVLNPNFAEGHVSLGEALIYSGRSGEALAYFDRASVLNPYFPDIVLHFQALALFQLGRYEEAVELLLQRVSRNPVTDVSRALLAACYGHLGRFEEARATWQEVMRVNPDYSLEYRRKVLPFKNPADFELVVEGLRKAGVVQ”: the protein production entry was “failed”. In the case of “MGQKKYVELSKDIFIFSYLCGGINFTDIANLTQENIVNGRLHYIRQKTGKLIKIGIPQEAMQIIKKYTDESNGYLFPILNVKVHKTALQKQNRIHKIRGKVNDILKTLGKRLGIEANITTYVARHSFASVLKKSGVNIALISEALGHSDLATTQIYLDSFDNEQVDEAMKNLLEHHHHHH” it was “not failed”; in that of “MGQPSDLTESTLRFSSLDPLHPPVISQLTAIAKRIRRNSLHLPTIWQEAVDSIGSTLGVSRCLLLTKDFQSRHLQIEAEFCQPTVTAFAALIVPEESEIWRQLFEQHQPITLYNVQFQGEDLGGLWIFPTLYQDQANGYLCLQQVGPAPGPWHPETEALLQELAEQTGTAIAHATLYQELTQATKAAEEASRLKSEFLASTTHELRTPLNGIIGFLRLILDDMADSEAEKHEFVEEAYQSALLLLNLINDILDLAKIEAGRVGIELEVVDFSEVLQATENFALPQAQNKGLSFNLTAPNQGPLLVYGNQRWLLQVMLNIVGNAIKFTHEGGITVAVEVMPRTVLWEGVQKPGLLKVSVGDTGIGVSLEQQSKLFKKFVQIDGSHSKAYGGTGLGLVISQKLVETMGGKVAFFSMGEGLGSTVTFTVLLEELP”, “failed”; in that of “MGQQELAFGGGEFHSLWSCRFGAATLARRGCAFRNALAIMRGFPSALAGVRRTMHTLQQLRSGELAGATRLDLSCGLREFPREIFELADSLEVLNLSGNALDSLPDDLGRLHRLKVLFCSANDFDELPAAVGDCPALSMVGFKSNRIERVPAAALPPALRWLILTDNRIATLPEELGRRPLQKLMLAGNRLEALPESMAACEGLELLRIAANRFQRLPAWLATLPRLAWLAYAGNPLCRLPALADSGIAALDWSELSLDGLIGEGASGVIHRAGWHQPDGSTRTVALKLFKGEVTSDGTPASEMAACLAAGRHAQLIEVLGQLAGHPQGRDGLVLELLDDAYRNLAGPPSLESCTRDVYPPGLRFELATALRLAASLAALMAHLHGRGISHGDFYAHNILWREDGACLLGDFGAASFLPDDAVLAGALRRLEVRAFACLLEELLERSEAPPGQASLSAALVELQRRCALPRVSERPDFGEIQAILRDLAARSQAFPQVR”, “failed”. In the case of “MGQSIKNNFLLNLSTTITGLLFPLITFPYASRILMADGIGQVQFFQSIIDYVSLCTALGIPLYAVREIARIRDNKELRSRTTIEILLLHAILTLVGYIVVFILAKTVAKIEIDASLFFLLSTTLFFNTIGVAWFYQAIEDFKYITLRSLFVRILSLVALFIFVKTKQDLFYYAGILVIGTVGNNIFNFFRLRKYIKLSKGEFKRLNLLRHLIPALKIFILNLVISIYVNLDSVMLGFLKNEESVGYYAAATRLTKAILGIVSSLGAVLLPRFSNMITNGQKEEFQLLANKAASFTIALSLPMSVGLIFMAAPIIHIFCGNGFEPSILTLKLVAPIVLFIGLSGIIGMQILYPQGREKYVIISTMVGACINLLINYLLIPQYGQYGAALGTVIAEFMVTVIMILLGRKYLPINILSKQNLHYLIGSIVISILLAFLFVFPLHEVNYLLIGILLSVIVYYAYLLMIKDTLALQLKKLLLSIFKQ” it was “failed”; in that of “MGQSLPLLIRLIVVIWLTISMVTACPRAPTHLNHGRRTRGDNGYKLIVADGPNGYVPGKTYNLLLLGSRTHLKVQHFTHFTITAEAHTGARRPQAASPRRVGRFQLFSDSLTQFNDRCVNTVSEADDLPKTEVQVMWVAPESGSGCVSLSAMVYEGPRAWFADDGNLSTVICERKPDAAAAQKECCACDEAKYSFVFEGIWSNETHPKDYPFAIWLTHFSDVIGASHESNFSFWGENHIATAGFRSLAEWGSPAALETELRANGPKLRTLIKAAGLWYPNVNQNTSSKFRVDRKHPKVSLVSMFGPSPDWVVGISGLDLCTEDCSWKESMDFDLFPWDAGTDSGISYMSPNSETQPPERMYRITTMYPEDPRAPFYNPKSREMTPLAKLYLRREKIVSRNCDDEFLQALQLEVSDDAEEQDTRAECRVGDYSAWSPCSVSCGKGIRMRSRQYLYPAAADQNKCARQLVAKEMCVAAIPECADGPAQSKDRDDDEGENLANSQSLVGSNGEGAGLCKTSPWSVWSECSASCGIGITMRTRTFVNHLGRKRCPHITIVEKNKCMRPDCTYEQVELPDPQCPTSQWSDWSPCSSTCGRGVTIRTRLLLLENGPDKESCTQRMELHQQKECVNPIDCHINAEQAKDICVQAPDPGPCRGTYMRYAYDPQNQHCYSFTYGGCRGNRNNFLTENDCLNTCNVLRSPYSSRVDQPRACVLSDWSVWSPCSVSCGVGVSESRRYVVTEPQNGGQPCSKRLVKSRSCAMPAC”, “failed”. As to “MGQTAFVVKTESYRLLWDCITYLDETTITKIKELGGLDAIALSHPHYYSTQVEWAETFDVPIYIHEDDKEWVMRPSSRIIYWSGESLQLADGITVHRLGGHFSGGSVLHWEEGNDGKGILLTGDIIQVVADERWVSFMYSYPNLIPLPARKVEEMVNRVKPLQFNRLYNAFHRVVKLEHHHHHH”, the protein production entry is “not failed”.

Regarding “MGRGRSSSSSSIESSSKSNPFGASSSTRNLSTDLRLGLSFGTSSGTQYFNGGYGYSVAAPAVEDAEYVAAVEEEEENECNSVGSFYVKVNMEGVPIGRKIDLMSLNGYRDLIRTLDFMFNASILWAEEEDMCNEKSHVLTYADKEGDWMMVGDVPWEMFLSTVRRLKISRANYHY”, the protein production entry is listed as “failed”.

For the sequence “MGRLSVAPLAQLNRLRVRLSLVFVLFLLLVIGLGAFSINRLSAFHNVAAEISGRWLLSNRIAGDLNNSISDFRATEGELLTARRGKDRGRAEGSLAVLDEEIADAKRRYETIEHDPIELDLYRQFSEQWRAYRELANRVLVLSQRDDKTDAIALYYQESRRAFTVANATLATLTERNVTGANEATQAEAVAYRHARDLIVNAIIVAALLMIAGVLYFVTAVTNPIAELVDRMHRISDNETEIDIPSTERPDEVGEIARAVVRFRDNTVALAQSRATLAEQARTLEITLANERRMAELQRNFVSMVSHEFRTPLTVIDGYAQRLSHIKPPLSLEAVQDRSSRIRAAVRRMTALIEDMLGASQVLDLATPGAFQRTEFSLHLLVHEVCEMHRESSPDAQIVEQWHADVPEVFHGDARLLFQAVSNLIGNAVKYSPPKTPVSVDVSMESGAILICVADQGIGIPEKDLGHVFERYVRGANVTGTAGAGVGLYIVRLAAELHGGTVSVRSAEGTGSRFLLRLPEAPAPAPLSA”, the protein production entry is listed as “failed”. The value for “MGRSAVYTILTTGYVGSTGPGVAATVSYVADGGRHVVFDPGMVASRDHILGPLAELGLGPDDITDVVLSHHHPDNTMNVGLFGRATVHDHKVEYLGDQWRNRDAEGYELTPSLRLIRTPGHSLEDITLLAGTDTGVVAFAGDLWWHSDGPADDPVAPDREVLRASRLRVLAAADLIVPGHGSPLEHHHHHH” was “failed”; that for “MGRVYYGGVERTYLYRGRILNLALEGRYEIVEHKPAVAVIALREGRMLFVRQMRPAVGLAPLEIPAGLIEPGEDPLEAARRELAEETGLSGDLTYLFSYFVSPGFTDEKTHVFLAENLKEVEAHPDEDEAIEVVWMRPEEALERHQRGEVEFSATGLVGVLYYHAFLRGR” was “not failed”. In the case of “MGRYKDETPAVRVYTVCDESRYMIVRNVPALGCGDDLMRLFMTYGEVEEFAKRKLDESSFLGNRLQISYAPEYENVNDTKDKLESRRKEVLARLNPQKEKSTSQVTKLAGPALTQTDNVSSQRREMEYQFHRGNAPVTRVSSDQEYFASSSMNQTVKTVREKLNKTREENISSLSHCKQIEESGNQKRLQPSSQTQPEESGNQKRLQPSSQIQPDLKRTRVDNRRRI” it was “failed”.
